Test results reported in paper PMC10399917 (Journal of Molecular Cell Biology, 2023).

Columns and labels:
[1] = target: VF-TMPRSS2 (transmembrane serine protease 2 with N-terminal Venus-FLAG) (UniProt O15393); assay: […]
[2] = target: His-TMPRSS2 (transmembrane serine protease 2 with N-terminal 6x histidines) (UniProt O15393); assay: […]
His-TMPRSS2 (transmembrane serine protease 2 with N-terminal 6x histidines), sequence (O15393 whole entry): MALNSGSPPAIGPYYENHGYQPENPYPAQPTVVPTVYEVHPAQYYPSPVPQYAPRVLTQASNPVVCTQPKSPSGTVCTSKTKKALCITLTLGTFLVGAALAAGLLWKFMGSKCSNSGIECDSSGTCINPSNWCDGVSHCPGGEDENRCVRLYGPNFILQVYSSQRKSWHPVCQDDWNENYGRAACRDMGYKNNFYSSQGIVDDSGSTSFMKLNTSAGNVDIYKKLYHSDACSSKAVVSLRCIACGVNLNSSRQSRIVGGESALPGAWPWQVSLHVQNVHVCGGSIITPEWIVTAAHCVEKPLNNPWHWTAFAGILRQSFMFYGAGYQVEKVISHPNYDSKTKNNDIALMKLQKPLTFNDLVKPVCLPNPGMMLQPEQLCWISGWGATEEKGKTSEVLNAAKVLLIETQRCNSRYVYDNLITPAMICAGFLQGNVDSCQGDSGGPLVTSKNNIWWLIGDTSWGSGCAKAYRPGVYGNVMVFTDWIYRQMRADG

VF-TMPRSS2 (transmembrane serine protease 2 with N-terminal Venus-FLAG), sequence (O15393 whole entry): as above

**Q.** For “SPIKE-His (SARS-CoV-2 SPIKE glycoprotein with C-terminal 6x histidines) (from UniProt P0DTC2 14-1273) (natural protein)”, which S/B ratio (TR-FRET signal-to-background) [1] is on record?
**A.** > 23

**Q.** Which S/B ratio (TR-FRET signal-to-background) [2] does the source give for “SPIKE-FLAG (SARS-CoV-2 SPIKE glycoprotein with C-terminal FLAG) (from UniProt P0DTC2 14-1273) (natural protein)” here?
**A.** > 23

**Q.** With “SPIKE-VF (SARS-CoV-2 SPIKE glycoprotein with C-terminal Venus-FLAG) (from UniProt P0DTC2 14-1273) (natural protein)” as the substance, how does the S/B ratio (TR-FRET signal-to-background) [2] read?
**A.** 23
